Results reported in patent publication US20070244048A1 (published 2007).
Starred links: 1 amine or outer side, 2 acyl side, 3 side chain; linkers in the order of their positions; H or OH if unused. Non-standard residues stand in square brackets, D forms with d. *: point of attachment. Ttds = 1-amino-4,7,10-trioxa-13-tridecanamine succinimic acid spacer, O=C(CCC(=O)[*:2])NCCCOCCOCCOCCCN[*:1]; (PEG)2 40 kDa = branched PEG of 40 kDa linked via the Cys side-chain thiol (code C2 = Cys(PEG)2 40 kDa); Cholesteroyl = cholesterol linked to a cysteine residue via the side-chain thiol; Succinimide(1-Et,3-yl) = CCN1C(=O)CC(*)C1=O

T1: human NMUR1 (human, UniProt Q9HB89 1-426)
T1 sequence (looked up): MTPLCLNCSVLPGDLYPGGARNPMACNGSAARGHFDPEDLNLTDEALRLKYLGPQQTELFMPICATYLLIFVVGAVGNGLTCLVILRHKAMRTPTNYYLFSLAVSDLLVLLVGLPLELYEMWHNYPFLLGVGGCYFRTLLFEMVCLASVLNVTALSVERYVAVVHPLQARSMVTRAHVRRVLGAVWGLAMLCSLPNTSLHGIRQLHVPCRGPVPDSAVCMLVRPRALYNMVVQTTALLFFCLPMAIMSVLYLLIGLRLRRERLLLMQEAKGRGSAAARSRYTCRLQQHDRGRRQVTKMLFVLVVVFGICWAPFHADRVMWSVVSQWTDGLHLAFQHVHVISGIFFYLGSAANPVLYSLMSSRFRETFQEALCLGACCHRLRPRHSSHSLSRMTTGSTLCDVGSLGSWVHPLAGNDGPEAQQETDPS

T2: mouse NMUR1-ATG (mouse, UniProt O55040 1-428)
T2 sequence (looked up): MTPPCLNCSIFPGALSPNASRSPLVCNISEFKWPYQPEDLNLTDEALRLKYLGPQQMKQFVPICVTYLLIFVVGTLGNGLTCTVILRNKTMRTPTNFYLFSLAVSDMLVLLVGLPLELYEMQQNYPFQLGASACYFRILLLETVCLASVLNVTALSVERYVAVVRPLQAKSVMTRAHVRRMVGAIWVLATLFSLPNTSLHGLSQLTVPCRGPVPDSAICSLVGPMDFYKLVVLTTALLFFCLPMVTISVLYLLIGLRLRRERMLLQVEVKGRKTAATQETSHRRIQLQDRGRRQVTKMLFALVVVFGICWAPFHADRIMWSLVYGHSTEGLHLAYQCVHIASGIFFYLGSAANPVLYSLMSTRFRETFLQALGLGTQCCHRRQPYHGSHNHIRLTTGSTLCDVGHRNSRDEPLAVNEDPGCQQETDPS

T3: mouse NMUR1-CTG (mouse, UniProt O55040 1-428)
T3 sequence (looked up): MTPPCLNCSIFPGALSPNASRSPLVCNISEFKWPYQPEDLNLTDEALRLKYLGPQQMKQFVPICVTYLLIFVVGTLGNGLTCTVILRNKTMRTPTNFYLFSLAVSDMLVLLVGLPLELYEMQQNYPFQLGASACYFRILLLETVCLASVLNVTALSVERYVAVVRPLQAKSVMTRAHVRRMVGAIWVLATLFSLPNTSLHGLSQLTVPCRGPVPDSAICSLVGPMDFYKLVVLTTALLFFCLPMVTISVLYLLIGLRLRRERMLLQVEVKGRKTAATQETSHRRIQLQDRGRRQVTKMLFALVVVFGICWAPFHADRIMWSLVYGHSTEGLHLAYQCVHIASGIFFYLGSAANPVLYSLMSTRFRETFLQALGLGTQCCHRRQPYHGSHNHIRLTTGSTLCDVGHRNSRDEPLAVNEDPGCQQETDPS

T4: rat NMUR1-ATG (rat, UniProt Q9JJI5 1-425)
T4 sequence (looked up): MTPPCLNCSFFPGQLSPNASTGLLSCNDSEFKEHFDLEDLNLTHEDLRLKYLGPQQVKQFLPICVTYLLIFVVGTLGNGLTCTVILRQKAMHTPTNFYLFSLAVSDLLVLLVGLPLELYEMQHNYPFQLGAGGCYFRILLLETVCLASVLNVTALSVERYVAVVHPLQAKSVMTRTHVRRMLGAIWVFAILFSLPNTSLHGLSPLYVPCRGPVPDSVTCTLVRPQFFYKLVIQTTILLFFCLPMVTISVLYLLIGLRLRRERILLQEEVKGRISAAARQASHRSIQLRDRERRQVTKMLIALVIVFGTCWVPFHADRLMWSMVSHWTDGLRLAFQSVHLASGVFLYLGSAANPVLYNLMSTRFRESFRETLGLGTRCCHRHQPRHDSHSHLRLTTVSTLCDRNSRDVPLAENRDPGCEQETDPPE

T5: rat NMUR1-TTG (rat, UniProt Q9JJI5 1-425)
T5 sequence (looked up): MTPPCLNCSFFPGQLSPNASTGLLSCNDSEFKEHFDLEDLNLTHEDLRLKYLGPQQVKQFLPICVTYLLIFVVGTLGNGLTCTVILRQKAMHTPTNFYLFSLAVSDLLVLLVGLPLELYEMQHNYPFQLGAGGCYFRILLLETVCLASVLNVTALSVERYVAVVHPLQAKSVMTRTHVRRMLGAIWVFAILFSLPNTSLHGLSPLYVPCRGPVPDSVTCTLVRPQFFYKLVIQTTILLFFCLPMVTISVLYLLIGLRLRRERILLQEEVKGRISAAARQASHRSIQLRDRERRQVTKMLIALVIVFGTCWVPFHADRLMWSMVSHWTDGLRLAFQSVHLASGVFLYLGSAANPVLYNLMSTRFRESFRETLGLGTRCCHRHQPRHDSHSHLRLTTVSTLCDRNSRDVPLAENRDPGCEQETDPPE


Columns and labels:
Experiment in all cases: cell-based or functional assay
human NMUR1 = molecular target: T1, human NMUR1
human NMUR2 = human NMUR2 (human, UniProt Q9GZQ4 1-415)
mouse NMUR1-ATG = molecular target: T2, mouse NMUR1-ATG
mouse NMUR1-CTG = molecular target: T3, mouse NMUR1-CTG
mouse NMUR2 = mouse NMUR2 (mouse, UniProt Q8BZ39 1-395)
rat NMUR1-ATG = molecular target: T4, rat NMUR1-ATG
rat NMUR1-TTG = molecular target: T5, rat NMUR1-TTG
rat NMUR2 = rat NMUR2 (rat, UniProt Q9ESQ4 1-395)
Chain of rat NMUR2 (Q9ESQ4 whole entry): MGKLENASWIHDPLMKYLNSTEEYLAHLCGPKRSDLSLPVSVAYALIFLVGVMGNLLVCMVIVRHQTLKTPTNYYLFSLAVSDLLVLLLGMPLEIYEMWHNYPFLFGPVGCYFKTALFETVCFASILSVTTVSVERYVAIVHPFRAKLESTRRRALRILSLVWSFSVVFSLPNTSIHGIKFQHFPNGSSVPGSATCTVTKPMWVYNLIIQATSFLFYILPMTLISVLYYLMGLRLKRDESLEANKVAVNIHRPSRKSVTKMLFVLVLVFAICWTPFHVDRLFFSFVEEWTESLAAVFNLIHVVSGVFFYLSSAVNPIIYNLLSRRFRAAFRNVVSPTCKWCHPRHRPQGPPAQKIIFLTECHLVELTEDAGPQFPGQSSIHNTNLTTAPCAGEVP

Chain of human NMUR2 (Q9GZQ4 whole entry): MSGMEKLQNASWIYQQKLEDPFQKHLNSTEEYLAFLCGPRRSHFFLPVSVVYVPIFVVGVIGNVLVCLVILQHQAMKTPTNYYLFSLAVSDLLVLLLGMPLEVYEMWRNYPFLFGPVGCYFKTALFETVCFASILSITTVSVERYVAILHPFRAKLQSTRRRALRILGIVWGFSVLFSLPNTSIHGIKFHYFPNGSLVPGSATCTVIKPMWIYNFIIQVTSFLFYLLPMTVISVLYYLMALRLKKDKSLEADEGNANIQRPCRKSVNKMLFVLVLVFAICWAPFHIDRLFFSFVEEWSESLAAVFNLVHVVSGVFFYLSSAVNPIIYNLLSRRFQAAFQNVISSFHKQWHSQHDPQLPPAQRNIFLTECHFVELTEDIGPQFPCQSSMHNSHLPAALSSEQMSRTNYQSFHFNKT
Chain of mouse NMUR2 (Q8BZ39 whole entry): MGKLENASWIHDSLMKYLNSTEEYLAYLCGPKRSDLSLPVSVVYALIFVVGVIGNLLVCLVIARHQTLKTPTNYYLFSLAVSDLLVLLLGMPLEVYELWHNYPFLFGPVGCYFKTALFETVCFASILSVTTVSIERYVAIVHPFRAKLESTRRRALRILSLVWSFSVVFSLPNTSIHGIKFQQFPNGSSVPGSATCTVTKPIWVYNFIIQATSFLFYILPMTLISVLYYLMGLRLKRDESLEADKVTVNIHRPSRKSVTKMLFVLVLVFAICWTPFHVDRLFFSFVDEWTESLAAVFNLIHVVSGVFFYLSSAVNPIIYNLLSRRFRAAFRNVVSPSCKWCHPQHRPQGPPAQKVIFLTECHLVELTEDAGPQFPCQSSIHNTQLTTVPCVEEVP

Row | Binder | % Activity (FLIPR) (human NMUR1) | EC50 (FLIPR) (human NMUR1) | % Activity (FLIPR) (human NMUR2) | EC50 (FLIPR) (human NMUR2) | % Activity (FLIPR) (mouse NMUR1-ATG) | EC50 (FLIPR) (mouse NMUR1-ATG) | % Activity (FLIPR) (mouse NMUR1-CTG) | EC50 (FLIPR) (mouse NMUR1-CTG) | % Activity (FLIPR) (mouse NMUR2) | EC50 (FLIPR) (mouse NMUR2) | % Activity (FLIPR) (rat NMUR1-ATG) | EC50 (FLIPR) (rat NMUR1-ATG) | % Activity (FLIPR) (rat NMUR1-TTG) | EC50 (FLIPR) (rat NMUR1-TTG) | % Activity (FLIPR) (rat NMUR2) | EC50 (FLIPR) (rat NMUR2)
1 | Ac-C((PEG)2 40 kDa)ASQSRGYFLFRPRN-NH2 [NMU18] | 97.1% | 68.1 nM | 101% | 65.7 nM | 100% | 15.2 nM | 57.7% | 693 nM | 100% | 50.2 nM | 95.9% | 28.6 nM | 90.7% | 105 nM | 96.7% | 63 nM
2 | Ac-C(Cholesteroyl)GYFLFRPRN-NH2 [NMU11] | 20.6% | 1000 nM | 37.3% | 1000 nM | 81.3% | 1000 nM | 65% | 600 nM | 70.5% | 1000 nM | 50.9% | 316 nM |  |  | 33.2% | 1000 nM
3 | Ac-C(Succinimide(1-Et,3-yl))[Ttds]FLFRPRN-NH2 (SMILES CCN1C(=O)CC(SC[C@H](NC(C)=O)C(=O)NCCCOCCOCCOCCCNC(=O)CCC(=O)N[C@@H](Cc2ccccc2)C(=O)N[C@@H](CC(C)C)C(=O)N[C@@H](Cc2ccccc2)C(=O)N[C@@H](CCCNC(=N)N)C(=O)N2CCC[C@H]2C(=O)N[C@@H](CCCNC(=N)N)C(=O)N[C@@H](CC(N)=O)C(N)=O)C1=O) [NMU15] | 91.5% | 7.7 nM | 101% | 4.2 nM | 100% | 1.5 nM | 100% | 4 nM | 100% | 0.6 nM | 100% | 4.2 nM | 108% | 24.6 nM | 100% | 2.2 nM
4 | Ac-C((PEG)2 40 kDa)FRVDEEFQSPFASQSRGYFLFRPRN-NH2 [NMU12] | 92.9% | 58.6 nM | 89% | 119 nM | 98.4% | 72 nM | 68.5% | 407 nM | 94.1% | 19.1 nM | 52.7% | 1000 nM |  |  | 43.4% | 1000 nM
5 | Ac-C((PEG)2 40 kDa)[Ttds]FLFRPRN-NH2 [NMU16] | 74% | 1000 nM | 75% | 1000 nM | 100% | 24.1 nM | 57.2% | 651 nM | 97.4% | 138 nM | 75.4% | 418 nM | 34.6% | 1000 nM | 86.9% | 315 nM
